Measured values published in patent US20240132591A1 (PANDION OPERATIONS, published 2024).
Numbering of substitutions follows the chain as printed. One block for each binder: values may come before it.

Legend:
Human MAdCAM = target: T1, Human MAdCAM (human, UniProt Q13477 19-317, limits assumed); assay: BLI Octet, AHC capture
T1 construct: also called huMAdCAM; human MAdCAM-1
T1 sequence (looked up): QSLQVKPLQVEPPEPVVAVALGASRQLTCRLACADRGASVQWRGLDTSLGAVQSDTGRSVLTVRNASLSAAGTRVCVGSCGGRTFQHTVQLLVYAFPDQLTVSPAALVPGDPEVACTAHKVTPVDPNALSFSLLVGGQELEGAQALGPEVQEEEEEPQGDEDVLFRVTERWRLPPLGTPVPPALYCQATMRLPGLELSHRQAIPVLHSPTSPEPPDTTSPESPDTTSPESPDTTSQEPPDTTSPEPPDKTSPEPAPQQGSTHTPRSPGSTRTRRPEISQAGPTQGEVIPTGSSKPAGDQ

Insulin [1] = target: T2, Insulin (UniProt P01308 25-54; P01308 90-110); assay: ELISA on insulin-coated plate
T2 construct: Polyreactivity antigen; mature insulin has A and B chains; also called human insulin

Insulin [2] = target: T2, Insulin; assay: ELISA on insulin-coated plate, 100 nM
Description: Non-specific DNA and Insulin binding is predictive of poor pharmacokinetics (PK). An immunosorbent plate was coated with dsDNA at a concentration of 1 μg/mL or Insulin at 5 μg/mL in PBS pH 7.4, 75 μl/well, and incubated overnight at 4° C. Wells were washed with PBS pH 7.4 containing 0.05% Tween-20 (wash buffer) three times, and then blocked with 200 μl/well 1% BSA in PBS pH 7.4 (block buffer) for two hours at room temperature. […] The diluted material was added to the DNA/insulin coated plate at 75 μl/well for 1 hour at room temperature. After three washes with wash buffer, a donkey anti-human FcY HRP conjugated polyclonal antibody, diluted to 1:5000 in assay buffer, was added to the plate at 75 μl/well for 1 hr at room temperature. After three washes with wash buffer and three washes with wash buffer (with no tween-20), the assay was developed with TMB, and stopped with 1N HCL. OD 450 nm was measured. The experiment included appropriate controls for non-specific binding of test articles to the plate/block in the absence of DNA or insulin.

B1: PMAB21 (bispecific antibody, human IgG1, kappa)
heavy: EVQLLESGGGLVQPGGSLRLSCAASGFTFSNSDMSWVRQAPGKGLEWVSGITISGGSTYYADSVKGRFTISRDNSKNTLYLQMNSLRAEDTAVYYCARGRGGSGWLDYWGQGTLVTVSSASTKGPSVFPLAPSSKSTSGGTAALGCLVKDYFPEPVTVSWNSGALTSGVHTFPAVLQSSGLYSLSSVVTVPSSSLGTQTYICNVNHKPSNTKVDKKVEPKSCDKTHTCPPCPAPEAAGAPSVFLFPPKPKDTLMISRTPEVTCVVVDVSHEDPEVKFNWYVDGVEVHNAKTKPREEQYNSTYRVVSVLTVLHQDWLNGKEYKCKVSNKALPAPIEKTISKAKGQPREPQVYTLPPSREEMTKNQVSLTCLVKGFYPSDIAVEWESNGQPENNYKTTPPVLDSDGSFFLYSKLTVDKSRWQQGNVFSCSVMHEALHNHYTQKSLSLSPGGGGGSGGGGSGGGGSEVQLLESGGGLVQPGGSLRLSCAASGFTFSDFAMHWVRQAPGKGLEWISYISGDSGYTNYADSVKGRFTISRDNSKNTLYLQMNSLRAEDTAVYYCARDRPYYYYMDVWGKGTTVTVSSGGGGSGGGGSGGGGSGGGGSDIQMTQSPSSLSASVGDRVTITCRASQSVSRSLAWYQQKPGKAPKLLIYAASSLQSGVPSRFSGSGSGTDFTLTISSLQPEDFATYYCQQYKSYPVTFGQGTKVEIK
light: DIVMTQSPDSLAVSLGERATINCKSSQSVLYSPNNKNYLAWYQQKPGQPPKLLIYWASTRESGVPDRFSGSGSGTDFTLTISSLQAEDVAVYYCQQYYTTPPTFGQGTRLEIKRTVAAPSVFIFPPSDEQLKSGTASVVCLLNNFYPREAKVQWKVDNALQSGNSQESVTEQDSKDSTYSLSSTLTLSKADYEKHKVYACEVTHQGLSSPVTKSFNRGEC
binding result (Human MAdCAM): no binding (tested: 300 nM top concentration)

B2: PMAB38 (bispecific antibody, human IgG1, kappa)
heavy: B1 heavy with A496W, S634Y
light: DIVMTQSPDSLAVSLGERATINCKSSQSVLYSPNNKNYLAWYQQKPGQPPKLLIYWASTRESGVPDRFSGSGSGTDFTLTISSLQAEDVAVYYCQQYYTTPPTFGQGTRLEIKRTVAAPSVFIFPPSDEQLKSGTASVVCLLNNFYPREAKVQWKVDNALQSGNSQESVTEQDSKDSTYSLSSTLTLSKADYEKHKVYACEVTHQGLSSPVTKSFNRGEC
binding result (Human MAdCAM): no binding (tested: 200 nM top concentration)

B3: PMAB39 (bispecific antibody, human IgG1, kappa)
heavy: B1 heavy with A496W, A636N
light: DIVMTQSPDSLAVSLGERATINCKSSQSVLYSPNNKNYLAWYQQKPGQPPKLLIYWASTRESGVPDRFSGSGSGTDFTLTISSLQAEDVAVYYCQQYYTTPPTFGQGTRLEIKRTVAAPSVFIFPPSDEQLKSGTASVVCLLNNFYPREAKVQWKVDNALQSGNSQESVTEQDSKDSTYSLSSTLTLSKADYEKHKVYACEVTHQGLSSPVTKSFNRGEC
binding result (Human MAdCAM): no binding (tested: 200 nM top concentration)

B4: PMAB43 (bispecific antibody, human IgG1, kappa)
heavy: B1 heavy with A496W, V698R
light: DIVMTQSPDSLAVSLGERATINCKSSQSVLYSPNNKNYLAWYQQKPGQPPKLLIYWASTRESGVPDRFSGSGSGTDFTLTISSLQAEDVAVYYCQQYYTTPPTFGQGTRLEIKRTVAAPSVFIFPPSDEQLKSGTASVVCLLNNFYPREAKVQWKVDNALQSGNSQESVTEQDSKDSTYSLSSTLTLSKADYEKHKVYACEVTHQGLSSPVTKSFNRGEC
binding result (Human MAdCAM): no binding (tested: 200 nM top concentration)

B6: MIAB177 (antibody, human IgG1, kappa)
heavy: EVQLLESGGGLVQPGGSLRLSCAASGFTFSDFWMHWVRQAPGKGLEWVSAISGSGGSTYYADSVKGRFTISRDNSKNTLYLQMNSLRAEDTAVYYCARDRPYYYYMDVWGKGTTVTVSSASTKGPSVFPLAPSSKSTSGGTAALGCLVKDYFPEPVTVSWNSGALTSGVHTFPAVLQSSGLYSLSSVVTVPSSSLGTQTYICNVNHKPSNTKVDKKVEPKSCDKTHTCPPCPAPEAAGAPSVFLFPPKPKDTLMISRTPEVTCVVVDVSHEDPEVKFNWYVDGVEVHNAKTKPREEQYNSTYRVVSVLTVLHQDWLNGKEYKCKVSNKALPAPIEKTISKAKGQPREPQVYTLPPSREEMTKNQVSLTCLVKGFYPSDIAVEWESNGQPENNYKTTPPVLDSDGSFFLYSKLTVDKSRWQQGNVFSCSVMHEALHNHYTQKSLSLSPGGGGGSAPTSSSTKKTQLQLEHLLLDLQMILNGINNYKNPKLTRMLTFKFYMPKKATELKHLQCLEEELKPLEEALNLAPSKNFHLRPRDLISDINVIVLELKGSETTFMCEYADETATIVEFINRWITFSQSIISTLT
light: DIQMTQSPSSLSASVGDRVTITCRASQSVSRSLAWYQQKPGKAPKLLIYAASSLQSGVPSRFSGSGSGTDFTLTISSLQPEDFATYYCQQYKSYPVTFGQGTKVEIKRTVAAPSVFIFPPSDEQLKSGTASVVCLLNNFYPREAKVQWKVDNALQSGNSQESVTEQDSKDSTYSLSSTLTLSKADYEKHKVYACEVTHQGLSSPVTKSFNRGEC
notes: also called MIAB177-001
Kd (Human MAdCAM): 218 nM
koff (Human MAdCAM): 0.0851 s⁻¹
kon (Human MAdCAM): 391000 M⁻¹ s⁻¹

B11: MIAB146 (antibody, human IgG1, kappa)
heavy: B6 heavy with V48I, A50Y, S54D, G55S, S57Y, Y59N
light: B6 light with R31S
notes: also called MIAB146-001
Kd (Human MAdCAM): 43.8 nM
koff (Human MAdCAM): 0.0197 s⁻¹
kon (Human MAdCAM): 449000 M⁻¹ s⁻¹

B13: MIAB175 (antibody, human IgG1, kappa)
heavy: B6 heavy with D31S, F32Y, V48I, A50Y, S54D, G55S, S57Y, Y59N
light: B6 light
notes: also called MIAB175-001
Kd (Human MAdCAM): 22.6 nM
koff (Human MAdCAM): 0.0106 s⁻¹
kon (Human MAdCAM): 471000 M⁻¹ s⁻¹

B14: MIAB145 (antibody, human IgG1, kappa)
heavy: B6 heavy with V48I, A50Y, S54D, G55S, S57Y, Y59N
light: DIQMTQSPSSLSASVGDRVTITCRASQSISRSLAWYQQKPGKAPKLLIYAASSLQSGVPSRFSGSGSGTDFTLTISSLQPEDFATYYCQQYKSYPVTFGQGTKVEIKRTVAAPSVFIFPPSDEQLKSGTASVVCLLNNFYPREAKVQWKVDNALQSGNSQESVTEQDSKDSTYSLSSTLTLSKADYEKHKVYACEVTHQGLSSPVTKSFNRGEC
notes: also called MIAB145-001
Kd (Human MAdCAM): 22.2 nM
koff (Human MAdCAM): 0.00897 s⁻¹
kon (Human MAdCAM): 405000 M⁻¹ s⁻¹

B18: MIAB133 (antibody, human IgG1, kappa)
heavy: B6 heavy with D31S, V48I, A50Y, S54D, G55S, S57Y, Y59N
light: B6 light
notes: also called MIAB133-001
Kd (Human MAdCAM): 20 nM
koff (Human MAdCAM): 0.0113 s⁻¹
kon (Human MAdCAM): 564000 M⁻¹ s⁻¹

B19: MIAB174 (antibody, human IgG1, kappa)
heavy: B6 heavy with F32Y, V48I, A50Y, S54D, G55S, S57Y, Y59N
light: B6 light
notes: also called MIAB174-001
Kd (Human MAdCAM): 21.8 nM
koff (Human MAdCAM): 0.00969 s⁻¹
kon (Human MAdCAM): 445000 M⁻¹ s⁻¹

B20: MIAB137 (antibody, human IgG1, kappa)
heavy: B6 heavy
light: B6 light
notes: HCDR2 germlined
Kd (Human MAdCAM): 203 nM
koff (Human MAdCAM): 0.082 s⁻¹
kon (Human MAdCAM): 404000 M⁻¹ s⁻¹

B22: MIAB149 (antibody, human IgG1, kappa)
heavy: B6 heavy with V48I, A50Y, S54D, G55S, S57Y, Y59N
light: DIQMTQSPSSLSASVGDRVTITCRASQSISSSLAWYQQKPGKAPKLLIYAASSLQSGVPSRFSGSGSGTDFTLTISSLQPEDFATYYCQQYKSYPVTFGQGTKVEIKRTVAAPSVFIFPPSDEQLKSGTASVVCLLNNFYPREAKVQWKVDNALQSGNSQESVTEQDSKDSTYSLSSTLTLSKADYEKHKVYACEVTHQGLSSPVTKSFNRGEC
notes: also called MIAB149-001
Kd (Human MAdCAM): 68.8 nM
koff (Human MAdCAM): 0.0259 s⁻¹
kon (Human MAdCAM): 376000 M⁻¹ s⁻¹

Next, values leading:

binding result (Insulin [1]): no binding (tested: 100 nM)
Insulin polyreactivity score (Insulin [2]): 2.43
B5: MIAB129 (antibody, human IgG1, kappa)
heavy: B6 heavy with V48I, A50Y, S54D, G55S, S57Y, Y59N, Y102G
light: B6 light

binding result (Insulin [1]): no binding (tested: 100 nM)
Insulin polyreactivity score (Insulin [2]): 2.08
B7: MIAB139 (antibody)
heavy: B6 heavy with V48I, A50Y, S54D, G55S, S57Y, Y59N
light: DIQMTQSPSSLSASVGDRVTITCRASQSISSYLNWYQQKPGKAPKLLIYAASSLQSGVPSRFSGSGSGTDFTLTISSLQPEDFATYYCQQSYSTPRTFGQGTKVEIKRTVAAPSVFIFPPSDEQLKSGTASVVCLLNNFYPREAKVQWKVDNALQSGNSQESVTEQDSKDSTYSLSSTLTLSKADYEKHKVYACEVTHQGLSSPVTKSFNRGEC

binding result (Human MAdCAM): no binding (tested: 200 nM)
B8: MIAB147 (antibody, human IgG1, kappa)
heavy: B6 heavy with V48I, A50Y, S54D, G55S, S57Y, Y59N
light: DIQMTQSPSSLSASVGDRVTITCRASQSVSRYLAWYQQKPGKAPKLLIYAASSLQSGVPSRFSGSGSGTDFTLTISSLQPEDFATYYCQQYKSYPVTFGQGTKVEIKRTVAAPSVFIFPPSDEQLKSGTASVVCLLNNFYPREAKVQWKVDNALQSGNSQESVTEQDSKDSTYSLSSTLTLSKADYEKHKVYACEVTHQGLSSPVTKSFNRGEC
notes: also called MIAB147-001

binding result (Human MAdCAM): no binding (tested: 150 nM)
binding result (Insulin [1]): no binding (tested: 100 nM)
B9: MIAB141 (antibody, human IgG1, kappa)
heavy: B6 heavy with V48I, A50Y, S54D, G55S, S57Y, Y59N
light: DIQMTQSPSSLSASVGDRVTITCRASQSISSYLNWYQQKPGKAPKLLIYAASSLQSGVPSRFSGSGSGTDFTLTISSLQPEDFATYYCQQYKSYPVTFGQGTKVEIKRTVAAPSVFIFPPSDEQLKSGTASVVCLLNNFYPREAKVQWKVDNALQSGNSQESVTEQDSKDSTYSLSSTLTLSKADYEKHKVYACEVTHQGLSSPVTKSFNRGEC
notes: LCDR1 germlined

Kd (Human MAdCAM): 119 nM
fold reduction of affinity vs PRNT1 (Human MAdCAM): 10 fold
koff (Human MAdCAM): 0.0267 s⁻¹
kon (Human MAdCAM): 226000 M⁻¹ s⁻¹
B10: MIAB182 (antibody, human IgG1, kappa)
heavy: B6 heavy with D31S, F32Y
light: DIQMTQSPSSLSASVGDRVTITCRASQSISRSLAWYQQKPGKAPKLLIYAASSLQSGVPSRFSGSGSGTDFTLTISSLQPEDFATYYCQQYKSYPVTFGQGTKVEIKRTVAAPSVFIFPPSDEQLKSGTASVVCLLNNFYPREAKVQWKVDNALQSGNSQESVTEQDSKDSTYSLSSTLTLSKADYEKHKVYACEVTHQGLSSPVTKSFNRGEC
notes: also called MIAB182-001

Kd (Human MAdCAM): 563 nM
fold reduction of affinity vs PRNT1 (Human MAdCAM): 40 fold
koff (Human MAdCAM): 0.0818 s⁻¹
kon (Human MAdCAM): 145000 M⁻¹ s⁻¹
B12: MIAB184 (antibody, human IgG1, kappa)
heavy: B6 heavy with D31S, F32Y
light: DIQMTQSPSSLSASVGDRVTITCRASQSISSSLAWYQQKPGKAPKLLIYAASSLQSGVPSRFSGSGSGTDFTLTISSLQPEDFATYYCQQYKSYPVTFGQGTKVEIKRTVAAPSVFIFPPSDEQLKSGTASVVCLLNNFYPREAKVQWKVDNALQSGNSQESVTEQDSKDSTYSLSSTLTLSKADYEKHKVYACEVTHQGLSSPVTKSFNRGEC
notes: also called MIAB184-001

binding result (Human MAdCAM): no binding (tested: 150 nM)
B15: MIAB136 (antibody, human IgG1, kappa)
heavy: B6 heavy with D31S, F32Y, W33A, H35S, V48I, A50Y, S54D, G55S, S57Y, Y59N
light: B6 light
notes: HCDR1 germlined

Kd (Human MAdCAM): 362 nM
fold reduction of affinity vs PRNT1 (Human MAdCAM): 20 fold
koff (Human MAdCAM): 0.0599 s⁻¹
kon (Human MAdCAM): 166000 M⁻¹ s⁻¹
B16: MIAB183 (antibody, human IgG1, kappa)
heavy: B6 heavy with D31S, F32Y
light: B6 light with R31S
notes: also called MIAB183-001

binding result (Insulin [1]): no binding (tested: 100 nM)
B17: MIAB198 (antibody, human IgG1, kappa)
heavy: B6 heavy with V48I, A50Y, S54D, G55S, S57Y, Y59N, Y105I, T456A
light: B6 light
notes: also called MIAB198-CHO; MIAB198-HEK

Kd (Human MAdCAM): 519 nM
koff (Human MAdCAM): 0.22 s⁻¹
kon (Human MAdCAM): 372000 M⁻¹ s⁻¹
B21: MIAB178 (antibody, human IgG1, kappa)
heavy: B6 heavy with D31S, F32Y, V48I, G55S
light: B6 light
notes: also called MIAB178-001
